{"source": "paper PMC6713349", "about": "“Structural analysis of the recognition of the -35 promoter element by SigW from Bacillus subtilis”", "target": "T1, SigW sigma4 domain (σW4) (Bacillus subtilis 168, UniProt Q45585 126-187)", "T1 sequence": "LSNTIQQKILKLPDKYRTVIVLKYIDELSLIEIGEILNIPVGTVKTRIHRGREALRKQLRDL", "test": "X-ray crystallography (3.1 Å); 1:1 complex, DNA mixed at 1.1:1; printed Kd 1.47e-8 M is computed from PISA ΔG, not measured, so not taken; Complex dialysed in 20 mM HEPES pH 7.5, 0.2 M NaCl, 5% glycerol; crystals from PEG1500 and isopropanol; temperature not stated", "settings": "protein: recombinant; tags: N-terminal 6xHis, removed with TEV protease; 5' overhang 1 nt at each end, 11 bp"}
{"binder": "-35W (SigW -35 promoter element) (dsDNA) DNA 1: ATTGAAACCTTT DNA 2: AAAAGGTTTCAA", "values": [{"measurement": "binding result", "value": "binds"}]}
